According to US20230357420A1 (VILLARIS THERAPEUTICS, published 2023):

Key:
Human neudesin protein = molecular target: T1, Human neudesin protein (human, UniProt Q9UMX5 32-172); assay: BIACORE SPR, Fab at 62.5, 125, 250, 500 and 1000 nM on human neudesin protein; Rmax
T1 construct: also called NENF

Human CD122 His tagged [1] = molecular target: T2, Human CD122 His tagged (human, UniProt P14784 27-240); assay: Biacore SPR, Fab
T2 construct: also called hCD122; monomeric antigen; not shown: His tag
T2 sequence: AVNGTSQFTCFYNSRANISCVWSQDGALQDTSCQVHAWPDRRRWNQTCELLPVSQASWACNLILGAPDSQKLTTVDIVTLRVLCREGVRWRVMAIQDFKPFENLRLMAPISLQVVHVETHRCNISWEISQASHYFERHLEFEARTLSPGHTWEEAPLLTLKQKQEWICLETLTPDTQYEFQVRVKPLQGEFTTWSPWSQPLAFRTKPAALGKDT

Rhesus CD122 His tag = molecular target: T3, Rhesus CD122 His tag (rhesus monkey, UniProt Q38J85 27-240 (cynomolgus entry)); assay: Biacore SPR, Fab
T3 construct: also called rhCD122; cynomolgus and/or rhesus monkey CD122 His tag; not shown: His tag
T3 sequence: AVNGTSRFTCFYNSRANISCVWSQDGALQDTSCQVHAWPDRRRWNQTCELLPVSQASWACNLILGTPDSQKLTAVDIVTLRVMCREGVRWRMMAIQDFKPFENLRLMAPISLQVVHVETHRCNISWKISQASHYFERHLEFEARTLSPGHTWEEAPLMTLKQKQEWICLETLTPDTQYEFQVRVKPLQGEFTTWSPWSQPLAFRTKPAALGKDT

Human CD122 His tagged [2] = molecular target: T2, Human CD122 His tagged; assay: Biacore, Fab affinity and kinetics on hCD122
Human CILP2 protein = molecular target: T4, Human CILP2 protein (human, UniProt Q8IUL8 21-1156, limits assumed); assay: BIACORE SPR, Fab at 62.5, 125, 250, 500 and 1000 nM on human CILP2 protein; Rmax
T4 construct: also called cartilage intermediate layer protein 2
T4 sequence (looked up): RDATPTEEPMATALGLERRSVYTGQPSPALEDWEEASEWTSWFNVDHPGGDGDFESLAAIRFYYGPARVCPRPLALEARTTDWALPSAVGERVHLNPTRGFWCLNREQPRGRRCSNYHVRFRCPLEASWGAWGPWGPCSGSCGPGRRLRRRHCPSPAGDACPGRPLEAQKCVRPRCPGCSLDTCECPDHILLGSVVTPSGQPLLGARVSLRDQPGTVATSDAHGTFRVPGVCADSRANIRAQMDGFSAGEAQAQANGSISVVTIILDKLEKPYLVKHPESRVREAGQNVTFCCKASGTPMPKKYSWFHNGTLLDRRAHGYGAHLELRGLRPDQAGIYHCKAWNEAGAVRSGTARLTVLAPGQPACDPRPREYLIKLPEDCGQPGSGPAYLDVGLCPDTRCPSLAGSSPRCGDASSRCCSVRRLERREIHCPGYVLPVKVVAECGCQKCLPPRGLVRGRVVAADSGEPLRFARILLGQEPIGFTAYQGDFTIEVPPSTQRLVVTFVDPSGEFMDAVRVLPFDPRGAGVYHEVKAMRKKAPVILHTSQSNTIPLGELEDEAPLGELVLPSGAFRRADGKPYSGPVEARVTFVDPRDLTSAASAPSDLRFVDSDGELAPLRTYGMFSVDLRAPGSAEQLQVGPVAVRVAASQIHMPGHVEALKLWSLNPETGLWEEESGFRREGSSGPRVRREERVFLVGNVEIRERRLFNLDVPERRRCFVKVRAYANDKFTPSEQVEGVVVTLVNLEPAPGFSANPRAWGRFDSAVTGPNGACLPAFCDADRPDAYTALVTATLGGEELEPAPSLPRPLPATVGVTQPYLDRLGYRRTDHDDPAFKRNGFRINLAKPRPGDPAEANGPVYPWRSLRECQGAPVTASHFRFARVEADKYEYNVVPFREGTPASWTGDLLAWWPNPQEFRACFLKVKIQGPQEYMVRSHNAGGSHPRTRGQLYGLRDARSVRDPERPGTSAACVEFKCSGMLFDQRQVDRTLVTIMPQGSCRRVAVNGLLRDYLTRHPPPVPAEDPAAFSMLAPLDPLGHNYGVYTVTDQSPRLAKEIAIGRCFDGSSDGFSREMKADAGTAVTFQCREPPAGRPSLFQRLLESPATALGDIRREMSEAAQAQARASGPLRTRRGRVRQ

T1 sequence (Q9UMX5 32-172 limits assumed): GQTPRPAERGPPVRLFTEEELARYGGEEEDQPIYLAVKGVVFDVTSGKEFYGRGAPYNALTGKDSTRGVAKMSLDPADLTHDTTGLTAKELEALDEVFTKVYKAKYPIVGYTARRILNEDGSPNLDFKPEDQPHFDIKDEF

B1: FAB18 (Fab, V domains shown)
VH: EVQLLESGGGLVQPGGSLRLSCAASGFSVTSYGVHWIRQAPGKGLEWLGVIWSGGSTDYNAAFISRLTISKDNSKNTVYFQMNSLRAEDTAVYYCARAGDYNYDGFAYWGQGTLVTVSS
VL: DIQMTQSPSSLSASVGDRVTITCQASSSVSFMYWYQQRPGKAPRLLIYDTSNLASGVPSRFSGSGSGTSYTFTISSLQPEDIATYYCQQWSTYPLTFGQGTKVEIK
notes: 06F11-V optimization variant; also called Fab version of MAB18
- binding result (Human neudesin protein): no binding (tested: 1000 nM)
- Kd (Human CD122 His tagged [1]): 11.5 nM
- Kd (Rhesus CD122 His tag): 8.55 nM
- Kd (Human CD122 His tagged [2]): 11.5 nM
- koff (Human CD122 His tagged [2]): 0.0039 s⁻¹
- kon (Human CD122 His tagged [2]): 340000 M⁻¹ s⁻¹
- binding result (Human CILP2 protein): no binding (tested: 1000 nM)

B2: FAB01 (Fab, V domains shown)
VH: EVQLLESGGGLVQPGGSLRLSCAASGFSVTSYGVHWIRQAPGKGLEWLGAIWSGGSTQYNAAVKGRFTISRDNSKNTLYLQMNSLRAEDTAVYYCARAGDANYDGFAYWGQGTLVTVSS
VL: DIQMTQSPSSLSASVGDRVTITCQASSSVSFMYWYQQRPGKAPRLLIYDTSNLASGVPSRFSGSGSGTSYTFTISSLQPEDIATYYCQQWDTYPLTFGGGTKVEIK
notes: 06F11-V optimization variant
- Kd (Human CD122 His tagged [1]): 33.6 nM
- Kd (Rhesus CD122 His tag): 14.4 nM

B3: FAB02 (Fab, V domains shown)
VH: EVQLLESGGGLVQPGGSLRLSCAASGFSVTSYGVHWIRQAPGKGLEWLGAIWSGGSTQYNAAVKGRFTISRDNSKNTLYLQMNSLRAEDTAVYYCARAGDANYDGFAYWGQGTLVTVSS
VL: DIQMTQSPSSLSASVGDRVTITCQASQSVSFLYWYQQRPGKAPRLLIYDTSNLASGVPSRFSGSGSGTSYTFTISSLQPEDIATYYCQQWSTYPLTFGQGTKVEIK
notes: 06F11-V optimization variant
- Kd (Human CD122 His tagged [1]): 50.6 nM
- Kd (Rhesus CD122 His tag): 22.5 nM

B4: FAB03 (Fab, V domains shown)
VH: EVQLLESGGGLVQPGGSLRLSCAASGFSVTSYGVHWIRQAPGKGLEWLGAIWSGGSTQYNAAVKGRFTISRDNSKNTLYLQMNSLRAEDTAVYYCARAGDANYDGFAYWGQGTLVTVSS
VL: DIQMTQSPSSLSASVGDRVTITCQASSSVSFMYWYQQRPGKAPRLLIYDTSNLASGVPSRFSGSGSGTSYTFTISSLQPEDIATYYCQQWSTYPLTFGQGTKVEIK
notes: 06F11-V optimization variant
- Kd (Human CD122 His tagged [1]): 38.6 nM
- Kd (Rhesus CD122 His tag): 20.6 nM

B5: FAB04 (Fab, V domains shown)
VH: EVQLLESGGGLVQPGGSLRLSCAASGFTVTSYAVHWVRQAPGKGLEWLGVIWSGGSTDYNAAFISRLTISKDNSKNTVYFQMNSLRAEDTAVYYCARAGDANYDGFAYWGQGTLVTVSS
VL: DIQMTQSPSSLSASVGDRVTITCQASSSVSFMYWYQQRPGKAPRLLIYDTSNLASGVPSRFSGSGSGTSYTFTISSLQPEDIATYYCQQWDTYPLTFGGGTKVEIK
notes: 06F11-V optimization variant
- Kd (Human CD122 His tagged [1]): 13.8 nM
- Kd (Rhesus CD122 His tag): 9.26 nM

B6: FAB05 (Fab, V domains shown)
VH: EVQLLESGGGLVQPGGSLRLSCAASGFTVTSYAVHWVRQAPGKGLEWLGVIWSGGSTDYNAAFISRLTISKDNSKNTVYFQMNSLRAEDTAVYYCARAGDANYDGFAYWGQGTLVTVSS
VL: DIQMTQSPSSLSASVGDRVTITCQASQSVSFLYWYQQRPGKAPRLLIYDTSNLASGVPSRFSGSGSGTSYTFTISSLQPEDIATYYCQQWSTYPLTFGQGTKVEIK
notes: 06F11-V optimization variant; also called Fab version of MAB05
- binding result (Human neudesin protein): no binding (tested: 1000 nM)
- Kd (Human CD122 His tagged [1]): 10.2 nM
- Kd (Rhesus CD122 His tag): 8.86 nM
- Kd (Human CD122 His tagged [2]): 10.2 nM
- koff (Human CD122 His tagged [2]): 0.0058 s⁻¹
- kon (Human CD122 His tagged [2]): 570000 M⁻¹ s⁻¹
- binding result (Human CILP2 protein): no binding (tested: 1000 nM)

B7: FAB06 (Fab, V domains shown)
VH: EVQLLESGGGLVQPGGSLRLSCAASGFTVTSYAVHWVRQAPGKGLEWLGVIWSGGSTDYNAAFISRLTISKDNSKNTVYFQMNSLRAEDTAVYYCARAGDANYDGFAYWGQGTLVTVSS
VL: DIQMTQSPSSLSASVGDRVTITCQASSSVSFMYWYQQRPGKAPRLLIYDTSNLASGVPSRFSGSGSGTSYTFTISSLQPEDIATYYCQQWSTYPLTFGQGTKVEIK
notes: 06F11-V optimization variant; also called Fab version of MAB06
- binding result (Human neudesin protein): no binding (tested: 1000 nM)
- Kd (Human CD122 His tagged [1]): 8.04 nM
- Kd (Rhesus CD122 His tag): 9.78 nM
- Kd (Human CD122 His tagged [2]): 8 nM
- koff (Human CD122 His tagged [2]): 0.0044 s⁻¹
- kon (Human CD122 His tagged [2]): 540000 M⁻¹ s⁻¹
- binding result (Human CILP2 protein): no binding (tested: 1000 nM)

B8: FAB07 (Fab, V domains shown)
VH: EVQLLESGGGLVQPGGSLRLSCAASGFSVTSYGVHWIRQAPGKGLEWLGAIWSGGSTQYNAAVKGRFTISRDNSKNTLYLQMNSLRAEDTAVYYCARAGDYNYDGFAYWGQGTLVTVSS
VL: DIQMTQSPSSLSASVGDRVTITCQASSSVSFMYWYQQRPGKAPRLLIYDTSNLASGVPSRFSGSGSGTSYTFTISSLQPEDIATYYCQQWDTYPLTFGGGTKVEIK
notes: 06F11-V optimization variant
- Kd (Human CD122 His tagged [1]): 30.1 nM
- Kd (Rhesus CD122 His tag): 16.3 nM

B9: FAB08 (Fab, V domains shown)
VH: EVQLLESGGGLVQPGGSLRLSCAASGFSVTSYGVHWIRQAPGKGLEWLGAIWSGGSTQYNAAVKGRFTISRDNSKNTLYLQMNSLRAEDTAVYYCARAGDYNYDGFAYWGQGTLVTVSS
VL: DIQMTQSPSSLSASVGDRVTITCQASQSVSFLYWYQQRPGKAPRLLIYDTSNLASGVPSRFSGSGSGTSYTFTISSLQPEDIATYYCQQWSTYPLTFGQGTKVEIK
notes: 06F11-V optimization variant
- Kd (Human CD122 His tagged [1]): 41.2 nM
- Kd (Rhesus CD122 His tag): 30.7 nM

B10: FAB09 (Fab, V domains shown)
VH: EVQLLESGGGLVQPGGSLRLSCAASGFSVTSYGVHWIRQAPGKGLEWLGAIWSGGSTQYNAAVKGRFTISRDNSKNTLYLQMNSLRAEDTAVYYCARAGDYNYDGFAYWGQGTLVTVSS
VL: DIQMTQSPSSLSASVGDRVTITCQASSSVSFMYWYQQRPGKAPRLLIYDTSNLASGVPSRFSGSGSGTSYTFTISSLQPEDIATYYCQQWSTYPLTFGQGTKVEIK
notes: 06F11-V optimization variant
- Kd (Human CD122 His tagged [1]): 72.5 nM
- Kd (Rhesus CD122 His tag): 36.5 nM

B11: FAB10 (Fab, V domains shown)
VH: EVQLLESGGGLVQPGGSLRLSCAASGFTVTSYAVHWVRQAPGKGLEWLGVIWSGGSTDYNAAFISRLTISKDNSKNTVYFQMNSLRAEDTAVYYCARAGDYNYDGFAYWGQGTLVTVSS
VL: DIQMTQSPSSLSASVGDRVTITCQASSSVSFMYWYQQRPGKAPRLLIYDTSNLASGVPSRFSGSGSGTSYTFTISSLQPEDIATYYCQQWDTYPLTFGGGTKVEIK
notes: 06F11-V optimization variant
- Kd (Rhesus CD122 His tag): 16.7 nM

B12: FAB11 (Fab, V domains shown)
VH: EVQLLESGGGLVQPGGSLRLSCAASGFTVTSYAVHWVRQAPGKGLEWLGVIWSGGSTDYNAAFISRLTISKDNSKNTVYFQMNSLRAEDTAVYYCARAGDYNYDGFAYWGQGTLVTVSS
VL: DIQMTQSPSSLSASVGDRVTITCQASQSVSFLYWYQQRPGKAPRLLIYDTSNLASGVPSRFSGSGSGTSYTFTISSLQPEDIATYYCQQWSTYPLTFGQGTKVEIK
notes: 06F11-V optimization variant
- Kd (Human CD122 His tagged [1]): 17.7 nM
- Kd (Rhesus CD122 His tag): 15.9 nM

B13: FAB12 (Fab, V domains shown)
VH: EVQLLESGGGLVQPGGSLRLSCAASGFTVTSYAVHWVRQAPGKGLEWLGVIWSGGSTDYNAAFISRLTISKDNSKNTVYFQMNSLRAEDTAVYYCARAGDYNYDGFAYWGQGTLVTVSS
VL: DIQMTQSPSSLSASVGDRVTITCQASSSVSFMYWYQQRPGKAPRLLIYDTSNLASGVPSRFSGSGSGTSYTFTISSLQPEDIATYYCQQWSTYPLTFGQGTKVEIK
notes: 06F11-V optimization variant
- Kd (Human CD122 His tagged [1]): 21.8 nM
- Kd (Rhesus CD122 His tag): 19.5 nM

B14: FAB13 (Fab, V domains shown)
VH: EVQLLESGGGLVQPGGSLRLSCAASGFSVTSYGVHWIRQAPGKGLEWLGVIWSGGSTDYNAAFISRLTISKDNSKNTVYFQMNSLRAEDTAVYYCARAGDANYDGFAYWGQGTLVTVSS
VL: DIQMTQSPSSLSASVGDRVTITCQASSSVSFMYWYQQRPGKAPRLLIYDTSNLASGVPSRFSGSGSGTSYTFTISSLQPEDIATYYCQQWDTYPLTFGGGTKVEIK
notes: 06F11-V optimization variant
- Kd (Human CD122 His tagged [1]): 5.37 nM
- Kd (Rhesus CD122 His tag): 3.25 nM

B15: FAB16 (Fab, V domains shown)
VH: EVQLLESGGGLVQPGGSLRLSCAASGFSVTSYGVHWIRQAPGKGLEWLGVIWSGGSTDYNAAFISRLTISKDNSKNTVYFQMNSLRAEDTAVYYCARAGDYNYDGFAYWGQGTLVTVSS
VL: DIQMTQSPSSLSASVGDRVTITCQASSSVSFMYWYQQRPGKAPRLLIYDTSNLASGVPSRFSGSGSGTSYTFTISSLQPEDIATYYCQQWDTYPLTFGGGTKVEIK
notes: 06F11-V optimization variant
- Kd (Human CD122 His tagged [1]): 8.56 nM
- Kd (Rhesus CD122 His tag): 5.04 nM
